Patent publication US6043211A, “Method for inhibiting the activity of a platelet-derived growth factor receptor binding protein” (The Regents of the University of California, priority 1995, dated 2000)
Entries after “also recorded” stand apart in the source; their conditions may differ. Square brackets hold non-standard residues; d marks the D form. Ends that are not written are not given here. Peptide text beside a SMILES is read from it. pY = N[C@@H](Cc1ccc(OP(=O)(O)O)cc1)C(=O)O

Key:
[1] = biological target: T1, type B receptor tyrosine kinase (Homo sapiens, UniProt P09619); assay: Activation of PDGF receptor tyrosine kinase (autophosphorylation, anti-phosphotyrosine Western blot) in CHO-HR5; type: cell-based; conditions: transfected human receptor
T1 construct: expressed in transfected cells; host or cells: CHO (clone CHO-HR5), plasmid pSVRH5
Excerpt: Following polyacrylamide-SDS electrophoresis, the phosphorylated receptor was identified by Western blot using an anti-phosphotyrosine antibody.

[2] = biological target: T2, transfected type B human receptor (Homo sapiens, UniProt P09619); assay: Competitive binding of PDGF forms against 125I-PDGF on CHO transfectants (CHO-HR5)
T2 construct: expressed in transfected cells; host or cells: CHO (clone CHO-HR5), plasmid pSVRH5
Experimental: Binding was carried out at 37° C. for 45 min in whole cell suspension.

[3] = tested on: native mouse receptor; assay: Competitive binding of PDGF forms against 125I-PDGF on BALB/c 3T3 cells; conditions: mouse 3T3 cells, yeast-expressed homodimers
Excerpt: The ability of the human recombinant AA and BB homodimers to compete for the type B receptor sites and displace ^125 I-labeled PDGF (prepared as described below) was studied. Each homodimer was produced selectively by a yeast expression system and was purified from yeast media that is devoid of other mesenchymal cell growth factors, thus avoiding the artifact of contamination by factors that might be present in mammalian expression systems.
BALB/c 3T3 cells and CHO transfectants (CHO-HR5) were incubated with ^125 I-PDGF in the presence of increasing concentrations of AA or BB. Binding was carried out at 37° C. for 45 min in whole cell suspension. Unbound, radiolabeled PDGF was removed by centrifugation on a Ficoll gradient Non-specific binding, determined by incubating CHO cells with ^125 I-PDGF, accounted for 25 percent of the bound radioactivity.

[4] = biological target: T3, 85 kD protein association with type B PDGF receptor (Mus musculus, UniProt P26450); assay: In vitro association of 85 kD phosphoprotein with immobilized baculovirus-expressed PDGF receptor (in vitro kinase assay); type: binding; conditions: peptides (50 μM) preincubated with unstimulated 3T3 lysate, FIG. 4a
T3 construct: Cytoplasmic cell lysates from density-arrested BALB/c 3T3 cells were mixed with the immobilized receptor; endogenous in cells; host or cells: BALB/c 3T3 cell lysate (85 kD protein); receptor made in Sf9 insect cells with recombinant baculovirus
Excerpt: In in vitro experiments, the type B PDGF receptor was expressed in an insect cell expression system, partially purified, and immobilized using anti-receptor antibodies and protein A Sepharose. The receptor was allowed to autophosphorylate in vitro, so that it would be in a conformation that mimicked the ligand-activated state of the receptor. Cytoplasmic cell lysates from density-arrested BALB/c 3T3 cells were mixed with the immobilized receptor and the complexes were washed extensively. […] The receptor-associated phosphoproteins were detected by an in vitro kinase assay using ^32 P-ATP.
To determine the ability of a series of synthetic peptides derived from this sequence to block the interaction between the receptor and the 85 kD/PI3 kinase activity, 3T3 lysates were incubated with the different peptides prior to mixing with immobilized receptor. […] The other lanes show the proteins that associated with the receptor in the presence of derivatives of the Y719 peptide.
Infected cells were washed twice with cold PBS and lysed in 1 ml of lysis buffer (1% NP-40, 20 mM Tris (pH 8.0), 173 mM NaCl, 10% glycerol, 2 mM EDTA, 1 mM phenylmethylsulfonylfluoride (PMSF), aprotinin (0.15 U/ml), 20 μM leupeptin, 1 mM sodium orthovanadate) at 4° C. for 20 min with rocking. In most experiments (except where indicated in the legend of FIG. 3) the immunoprecipitated receptor was autophosphorylated in vitro by incubating the immune complexes in a buffer containing 20 mM Tris (pH 7.5), 20 mM MnCl, 100 μM ATP for 15 min at 25° C. Lysates were cleared of insoluble material by centrifugation at 13,000× g for 10 min. Lysates were incubated with receptor antibodies (1:500 dilution) for 4 h at 4° C. Receptor-antibody complexes were precipitated using Protein-A sepharose (Sigma) and washed consecutively with RIPA buffer (lysis buffer with 0.1% SDS), wash buffer 1 [0.5% NP-40, 0.5 M LiCl, 50 mM Tris (pH 7.4)] and with 10 mM Tris (pH 7.4). The PI3 kinase association assay was performed by incubating the immobilized receptor with BALB c/3T3 cell lysates for 3 hours at 4° C. The immune complexes were consecutively washed with cold PBS; 0.5% NP-40, 0.5 M LiCl and 51 50 mM Tris (pH 7.4).

[5] = biological target: T4, 85 kD protein (Mus musculus, UniProt P26450); assay: Receptor blot: 32P-labeled PDGF receptor probe binding to immobilized 85 kD protein; conditions: 2.5 μM peptide, FIG. 7
T4 construct: Cytoplasmic cell lysates from density-arrested BALB/c 3T3 cells were mixed with the immobilized receptor; endogenous in cells; host or cells: BALB/c 3T3 cell lysate (85 kD protein); receptor made in Sf9 insect cells with recombinant baculovirus
Excerpt: FIG. 7 illustrates the association of soluble radiolabeled receptor with immobilized 85 kD protein ("receptor blot"). Baculovirus-expressed PDGF receptors were immunoprecipitated using receptor antibodies and the receptor was ^32 P-labeled in vitro by autophosphorylation. The solubilized radiolabeled receptor was used to probe nitrocellulose filters containing SDS-polyacrylamide gel-fractionated lysates from control (lanes 1, 3, 4 and 5) or PDGF stimulated (lane 2) cells. In the peptide competition experiments (lane 3, 4, and 5) the peptides were added to the nitrocellulose paper along with the radiolabeled receptor probe. The arrow indicates the position of the 85 kD protein.
To determine the nature of the interaction of the receptor with the 85 kD protein, a modification of Western blotting methodology was used. PDGF receptor from Sf9 cells infected with PDGF receptor baculovirus was immuno precipitated with receptor antibodies, labeled with ^32 P in vitro, and used as a probe to bind proteins from 3T3 cell lysates that had been separated electrophoretically and transferred to nitrocellulose. The radiolabeled PDGF receptor bound directly to an 85 kDa protein in unstimulated 3T3 cell lysate (FIG. 7, lane 1). […] The direct binding interaction appears to involve the 20 amino acid segment in the kinase insert region containing tyrosine 719, and tyrosine phosphorylation of this segment appears to be necessary for the interaction.
Cell lysate proteins transferred to nitrocellulose membranes were analyzed for their ability to bind directly to the PDGF receptor by probing the nitrocellulose membrane with ^32 P-labeled PDGF receptor. To prepare the radiolabeled receptor probe, baculovirus-expressed receptor was immunoprecipitated from 10^6 Sf9 cells. The immune complexes were washed and labeled by autophosphorylation as described above. Labeled receptor was solubilized from the immunoprecipitates by repeated incubation of the immunoprecipitate in solubilization buffer (0.4% SDS, 100 mM NaCl, 2 mM EDTA, 2 mM β-mercaptoethanol, and 50 mM triethanolamine, pH 7.4) at 100° C. for 2 min. […]

[6] = biological target: T5, PI3 kinase association with type B PDGF receptor (Mus musculus, UniProt P26450); assay: In vitro association of PI3 kinase activity with immobilized baculovirus-expressed PDGF receptor; type: binding; conditions: for Blocking of association of PI3 kinase activity with the receptor: peptides (50 μM) preincubated with unstimulated 3T3 lysate, FIG. 4b
T5 construct: Cytoplasmic cell lysates from density-arrested BALB/c 3T3 cells were mixed with the immobilized receptor; endogenous in cells; host or cells: BALB/c 3T3 cell lysate (85 kD protein); receptor made in Sf9 insect cells with recombinant baculovirus
Excerpt: An in vitro system was used to study the interaction of PDGF receptors and PI3 kinase. […] These phosphoproteins include the 85 kDa protein and a 110 kDa protein that have recently been correlated with PI3 kinase activity. In in vitro experiments, the type B PDGF receptor was expressed in an insect cell expression system, partially purified, and immobilized using anti-receptor antibodies and protein A Sepharose. The receptor was allowed to autophosphorylate in vitro, so that it would be in a conformation that mimicked the ligand-activated state of the receptor. Cytoplasmic cell lysates from density-arrested BALB/c 3T3 cells were mixed with the immobilized receptor and the complexes were washed extensively. PI3 kinase activity was found in the complex of proteins associated with the receptor (FIG. 1d). The receptor-associated phosphoproteins were detected by an in vitro kinase assay using ^32 P-ATP. At least four receptor-associated proteins with apparent molecular weights of 140 kD, 120/110 kD (sometimes a doublet), 85 kD and 74 kD were radiolabeled (the bands at 160 kD and 150 kD are the baculovirus-expressed receptor and its precursor, respectively). The 140 kD band has been previously identified as […] and the band at 74 kD includes the raf-1 kinase and probably another molecule as well. The 85 kD protein co-migrated with the 85 kD band, previously considered to be PI3 kinase, in anti-phosphotyrosine immunoprecipitates of cell lysates prepared from PDGF-stimulated cells. The association of 85 and 110 kD proteins with the baculovirus-expressed receptor was also observed by silver stain analysis.
To determine the ability of a series of synthetic peptides derived from this sequence to block the interaction between the receptor and the 85 kD/PI3 kinase activity, 3T3 lysates were incubated with the different peptides prior to mixing with immobilized receptor. […] The arrow indicates the position of the 85 kD protein that co-purified with the PI3 kinase activity. […]

T1 sequence (P09619 33-1106): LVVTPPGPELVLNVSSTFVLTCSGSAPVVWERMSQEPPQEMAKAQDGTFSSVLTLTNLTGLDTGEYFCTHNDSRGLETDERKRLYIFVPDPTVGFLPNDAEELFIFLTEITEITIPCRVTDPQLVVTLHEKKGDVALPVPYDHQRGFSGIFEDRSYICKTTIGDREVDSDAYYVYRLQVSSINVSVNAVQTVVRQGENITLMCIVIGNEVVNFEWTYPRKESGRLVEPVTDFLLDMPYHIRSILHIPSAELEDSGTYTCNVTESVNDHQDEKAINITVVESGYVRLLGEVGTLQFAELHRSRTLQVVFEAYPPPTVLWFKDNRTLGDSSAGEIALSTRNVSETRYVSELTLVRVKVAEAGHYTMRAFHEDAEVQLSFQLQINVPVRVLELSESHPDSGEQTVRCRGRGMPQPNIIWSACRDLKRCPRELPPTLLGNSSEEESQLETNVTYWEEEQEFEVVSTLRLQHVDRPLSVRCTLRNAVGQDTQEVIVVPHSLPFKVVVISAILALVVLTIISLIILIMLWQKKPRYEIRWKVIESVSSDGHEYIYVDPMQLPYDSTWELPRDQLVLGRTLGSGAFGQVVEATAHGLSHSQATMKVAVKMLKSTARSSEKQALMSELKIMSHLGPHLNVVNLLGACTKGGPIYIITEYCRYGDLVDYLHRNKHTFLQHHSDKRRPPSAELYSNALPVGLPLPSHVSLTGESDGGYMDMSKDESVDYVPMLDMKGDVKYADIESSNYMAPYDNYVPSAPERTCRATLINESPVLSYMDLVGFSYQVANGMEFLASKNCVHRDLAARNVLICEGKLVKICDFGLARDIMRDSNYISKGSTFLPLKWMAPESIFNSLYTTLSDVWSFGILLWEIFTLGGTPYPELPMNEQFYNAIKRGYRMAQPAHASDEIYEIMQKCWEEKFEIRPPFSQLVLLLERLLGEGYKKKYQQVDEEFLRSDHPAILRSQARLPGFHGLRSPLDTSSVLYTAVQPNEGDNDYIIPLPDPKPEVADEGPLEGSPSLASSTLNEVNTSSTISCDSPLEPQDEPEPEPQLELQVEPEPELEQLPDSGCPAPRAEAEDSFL
T5 sequence (P26450 whole entry): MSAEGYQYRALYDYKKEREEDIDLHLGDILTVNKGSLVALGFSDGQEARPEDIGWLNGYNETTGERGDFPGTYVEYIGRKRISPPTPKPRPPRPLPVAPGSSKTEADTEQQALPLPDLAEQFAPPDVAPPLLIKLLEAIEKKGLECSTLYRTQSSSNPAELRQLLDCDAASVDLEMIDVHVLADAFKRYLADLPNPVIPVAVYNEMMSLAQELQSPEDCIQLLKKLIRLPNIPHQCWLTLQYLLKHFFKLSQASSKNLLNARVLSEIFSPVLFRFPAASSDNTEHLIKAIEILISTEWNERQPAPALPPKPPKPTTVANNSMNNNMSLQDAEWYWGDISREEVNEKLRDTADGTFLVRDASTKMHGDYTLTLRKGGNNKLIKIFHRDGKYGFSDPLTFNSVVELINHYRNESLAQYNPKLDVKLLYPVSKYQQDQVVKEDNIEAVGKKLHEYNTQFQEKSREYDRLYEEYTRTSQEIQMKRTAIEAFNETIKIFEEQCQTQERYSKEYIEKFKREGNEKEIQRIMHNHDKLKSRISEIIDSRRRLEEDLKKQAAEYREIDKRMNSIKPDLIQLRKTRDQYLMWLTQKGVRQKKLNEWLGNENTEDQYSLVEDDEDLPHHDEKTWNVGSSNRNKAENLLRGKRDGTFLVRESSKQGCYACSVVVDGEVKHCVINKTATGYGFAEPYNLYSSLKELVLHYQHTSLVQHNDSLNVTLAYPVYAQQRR
T5 sequence (P42337 whole entry partner): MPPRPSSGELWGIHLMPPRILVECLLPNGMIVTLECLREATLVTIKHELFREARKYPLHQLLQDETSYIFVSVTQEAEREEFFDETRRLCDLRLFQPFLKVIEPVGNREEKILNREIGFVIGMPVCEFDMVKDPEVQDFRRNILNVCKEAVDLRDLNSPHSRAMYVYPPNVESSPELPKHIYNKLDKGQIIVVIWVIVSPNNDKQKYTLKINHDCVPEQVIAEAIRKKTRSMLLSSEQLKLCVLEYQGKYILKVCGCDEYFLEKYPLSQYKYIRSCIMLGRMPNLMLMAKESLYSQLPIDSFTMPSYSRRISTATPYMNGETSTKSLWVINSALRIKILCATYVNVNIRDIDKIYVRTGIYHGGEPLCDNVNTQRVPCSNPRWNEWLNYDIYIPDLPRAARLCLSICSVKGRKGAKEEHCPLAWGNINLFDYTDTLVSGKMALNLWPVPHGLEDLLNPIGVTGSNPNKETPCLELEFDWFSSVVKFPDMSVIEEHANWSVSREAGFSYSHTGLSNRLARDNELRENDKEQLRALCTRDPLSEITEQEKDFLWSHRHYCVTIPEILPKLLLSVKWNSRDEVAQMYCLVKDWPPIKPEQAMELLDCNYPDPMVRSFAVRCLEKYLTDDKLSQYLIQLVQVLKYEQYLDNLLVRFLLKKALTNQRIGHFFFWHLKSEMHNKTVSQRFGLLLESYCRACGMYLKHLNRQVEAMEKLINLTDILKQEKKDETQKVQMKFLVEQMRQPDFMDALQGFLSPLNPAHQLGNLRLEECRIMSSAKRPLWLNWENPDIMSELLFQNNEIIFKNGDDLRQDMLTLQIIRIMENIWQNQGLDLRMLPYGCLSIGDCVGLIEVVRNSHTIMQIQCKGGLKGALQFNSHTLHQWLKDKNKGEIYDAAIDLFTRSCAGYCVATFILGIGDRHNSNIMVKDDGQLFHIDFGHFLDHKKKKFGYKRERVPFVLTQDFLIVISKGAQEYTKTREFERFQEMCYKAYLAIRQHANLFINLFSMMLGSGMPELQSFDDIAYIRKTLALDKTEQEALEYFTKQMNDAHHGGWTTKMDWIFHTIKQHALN
T4 sequence (P26450 whole entry): as the sequence (P26450 whole entry) above
T4 sequence (P42337 whole entry partner): as the sequence (P42337 whole entry partner) above
T3 sequence (P26450 whole entry): as the sequence (P26450 whole entry) above
T3 sequence (P42337 whole entry partner): as the sequence (P42337 whole entry partner) above
T2 sequence (P09619 33-1106): as the sequence (P09619 33-1106) above

| Compound | Blocking of binding of the 85 kD phosphoprotein to the receptor [4] | Effect on association of radiolabeled receptor with immobilized 85 kD protein (receptor blot) [5] | other results |
| --- | --- | --- | --- |
| AB: Human partially purified platelet-derived AB PDGF heterodimer |  |  | Activation of type B receptor tyrosine kinase (autophosphorylation) [1]: stimulated autophosphorylation of the transfected human receptor |
| AA: Human recombinant AA homodimer of PDGF produced by a yeast expression system |  |  | Relative affinity for the transfected type B human receptor ([2]; CHO-HR5, yeast-expressed homodimers): lower affinity than the BB form; Competition for 125I-PDGF labeled sites ([2]; human receptor transfectants, 37° C., 45 min): competed; Activation of type B receptor tyrosine kinase (autophosphorylation) [1]: stimulated autophosphorylation of the transfected human receptor; also recorded: activates the receptor tyrosine kinase of the type B receptor; Relative affinity for the native mouse receptor [3]: lower affinity than the BB form |
| CC[C@H](C)[C@H](NC(=O)[C@H](CO)NC(=O)[C@H](CCC(=O)O)NC(=O)[C@H](CC(=O)O)NC(=O)[C@H](CCCCN)NC(=O)[C@H](CO)NC(=O)[C@H](CCSC)NC(=O)[C@H](CC(=O)O)NC(=O)[C@H](CCSC)NC(=O)[C@H](Cc1ccc(OP(=O)(O)O)cc1)NC(=O)CNC(=O)CN)C(=O)N[C@@H](CC(=O)O)C(=O)N[C@@H](Cc1ccc(OP(=O)(O)O)cc1)C(=O)N[C@H](C(=O)N1CCC[C@H]1C(=O)N[C@@H](CCSC)C(=O)N[C@@H](CC(C)C)C(=O)N[C@@H](CC(=O)O)C(=O)N[C@@H](CCSC)C(=O)O)C(C)C [Y708P/Y719P] | blocked binding of the 85 kD protein |  |  |
| CC[C@H](C)[C@H](NC(=O)[C@H](CO)NC(=O)[C@H](CCC(=O)O)NC(=O)[C@H](CC(=O)O)NC(=O)[C@H](CCCCN)NC(=O)[C@H](CO)NC(=O)[C@H](CCSC)NC(=O)[C@H](CC(=O)O)NC(=O)[C@H](CCSC)NC(=O)[C@H](Cc1ccc(O)cc1)NC(=O)CNC(=O)CN)C(=O)N[C@@H](CC(=O)O)C(=O)N[C@@H](Cc1ccc(OP(=O)(O)O)cc1)C(=O)N[C@H](C(=O)N1CCC[C@H]1C(=O)N[C@@H](CCSC)C(=O)N[C@@H](CC(C)C)C(=O)N[C@@H](CC(=O)O)C(=O)N[C@@H](CCSC)C(=O)O)C(C)C [Y719P] | blocked the binding of the 85 kD phosphoprotein | failed to associate with the 85 kD protein | IC50 [6]: ~5 µM |
| CC[C@H](C)[C@H](NC(=O)[C@H](CO)NC(=O)[C@H](CCC(=O)O)NC(=O)[C@H](CC(=O)O)NC(=O)[C@H](CCCCN)NC(=O)[C@H](CO)NC(=O)[C@H](CCSC)NC(=O)[C@H](CC(=O)O)NC(=O)[C@H](CCSC)NC(=O)[C@H](Cc1ccc(O)cc1)NC(=O)CNC(=O)CN)C(=O)N[C@@H](CC(=O)O)C(=O)N[C@@H](Cc1ccc(O)cc1)C(=O)N[C@H](C(=O)N1CCC[C@H]1C(=O)N[C@@H](CCSC)C(=O)N[C@@H](CC(C)C)C(=O)N[C@@H](CC(=O)O)C(=O)N[C@@H](CCSC)C(=O)O)C(C)C [Y719] (H-GGYMDMSKDESIDYVPMLDM-OH) | No change in the pattern of receptor-associated protein | did not interfere with the association of the receptor with the 85 kD protein |  |
| MMDIKVPMDEYMSDYSDLGG (MMDIKVPMDE[pY]MSDYSDLGG; not fully specified; printed as MMDIKVPMDE*YMSDYSDLGG) [Y719P scrambled] | failed to block binding of the 85 kD protein | did not interfere with the association of the receptor with the 85 kD protein | Blocking of association of PI3 kinase activity with the receptor [6]: did not prevent the association of PI3 kinase activity with the receptor |
| CC[C@H](C)[C@H](NC(=O)[C@H](CO)NC(=O)[C@H](CCC(=O)O)NC(=O)[C@H](CC(=O)O)NC(=O)[C@H](CCCCN)NC(=O)[C@H](CO)NC(=O)[C@H](CCSC)NC(=O)[C@H](CC(=O)O)NC(=O)[C@H](CCSC)NC(=O)[C@H](Cc1ccc(OP(=O)(O)O)cc1)NC(=O)CNC(=O)CN)C(=O)N[C@@H](CC(=O)O)C(=O)O [Y708P short] | had blocking activity |  |  |
| MDMSKDESIDYVPMLDM (MDMSKDESID[pY]VPMLDM) [Y719P short] | blocked binding of the 85 kD protein; also recorded: had blocking activity |  | Blocking of association of PI3 kinase activity with the receptor [6]: inhibited the association of PI3 kinase activity with the receptor |
